Measured values taken from patent US20090227489A1, “STAT3 Agonists and Antagonists and Therapeutic Uses Thereof” (Johns Hopkins University, priority 2000, published 2009).

Columns and labels:
B16 cells = experiment: Apoptosis assay, Annexin V-PE staining and FACS; type: cell-based, murine; details: 48 hours post transfection; empty vector 25%
Procedure: Apoptosis assay. B16 cells transfected with pIRES-EGFP or pIRES-Stat3β were washed with CellScrub™ buffer (Gene Therapy Systems, San Diego, Calif.) 24 h after transfection. Apoptosis of transiently-transfected B16 cells was analyzed after staining with Annexin V-PE by two-color flow cytometry. Apoptosis of non-transfected tumor cells in the upper chambers of Transwell units was analyzed after staining with Annexin V-PE and VIA-PROBE™ 7-AAD (Pharmingen, San Diego, Calif.) by two-color flow cytometry.
This G0/G1 phase arrest was observed as early as 24 hourspost transfection. At 48 hours post transfection with Stat3β vector, Annexin V-PE staining followed by FACS analysis to detect apoptotic activity was performed with transfected B16 cells. A high level of apoptosis in Stat3β transfected cells (75%) relative to empty vector transfected cells (25%) was observed, as shown in FIG. 2C. Increased levels of apoptosis as a result of Stat3β transfection was confirmed by confocal laser scanning microscope analysis using rhodamine-labelled TUNEL assay.

B16 tumors = experiment: Stat3β gene therapy of established B16 tumors in mice; type: in vivo; details: for tumor growth: ten to fifteen percent of tumor cells transfected in vivo
Procedure: Mice. Six- to eight-week old female C57/B6 mice were obtained from the National Cancer Institute (Frederick, Md.). Cohorts of 3-5 mice per group were used for these experiments. To induce tumor, mice were shaved on the left flank and injected s.c. with 5×10^5 of B16 cells in 100 μl of PBS. Gene therapy with Stat3β of established B16 tumors was described previously [Niu, 1999 #72].
Antibody staining of iNOS in B16 tumors. 3 μm paraffin sections were deparaffinized and endogenous peroxidase was blocked with 3% aqueous hydrogen peroxide. To minimize non-specific binding, the sections were incubated for 20 min in normal goat serum in PBS, followed by overnight incubation at 4° C. with rabbit anti-iNOS polyclonal antibody (Transduction Laboratories). After washing with PBS, sections were incubated for 2 min with diaminobenzidine tetrahydrochloride, rinsed with tap water and counterstained with modified Mayer's hematoxylin. Sections were dehydrated, cleared and mounted. Peritoneal macrophages and neutrophils.
Tissue sections from control vector-treated and Stat3β-treated tumors were stained with H&E and anti-iNOS antibodies.

Stat3 = target: T1, Stat3 (Mus musculus, UniProt P42227); experiment: EMSA of Stat3 DNA-binding activity in nuclear extracts of transfected B16 cells; type: cell-based, murine; details: B16 cells transfected with Stat3β, hSIE probe
T1 construct: endogenous in cells; host or cells: B16 murine melanoma cells (nuclear extracts)
Procedure: FIG. 1. Inhibition of endogenous Stat3 (SEQ. ID. NO: 1; SEQ. ID. NO:2) DNA-binding activity in B16 cells by overexpression of Stat3β (SEQ. ID. NO:3; SEQ. ID. NO:4). EMSA was performed with nuclear extracts prepared from B16 cells transfected with no DNA (lane 1), empty vector (lane 2) or Stat3β expression vector (lane 3). Extracts from NIH3T3 fibroblasts stimulated with EGF were used as a positive control for Stat1 and Stat3 (lane 4). Supershifts were performed using antibodies recognizing either Stat3 (α-ST3) or Stat3:3 (α-ST3β) with extracts derived from B16 cells transfected with no DNA (lanes 5-7), the empty vector (lanes 8-10), or Stat3β vector (lanes 11-13). ST3:3, and ST1:3, ST1:1 indicate migration of complexes containing Stat3 or Stat3β homodimers, Stat1/Stat3 heterodimers and Stat1/Stat1 homodimers, respectively. The asterisk indicates the position of supershifted complexes.
Nuclear extracts and EMSA. Nuclear extract preparation and EMSA analysis of STAT DNA-binding activity were performed as previously described Catlett-Falcone et al., 1999, supra.
EGF-induced Stat3 binding activity in NIH3T3 (lane 4) was used as a positive control. By supershift analysis with antibody that recognizes Stat3 but not Stat3β or antibody that recognizes Stat3β but not Stat3, it was shown that there were Stat3-Stat3 homodimers in mock-transfected B16 cells and empty vector-transfected B16 cells.

TRAIL = experiment: RNase protection assay with multi-template probes for regulators of apoptosis; type: cell-based, murine; details: B16 cells, thirty hours after transfection
Procedure: FIG. 4. Stat3β overexpression in B16 cells results in induction of TRAIL mRNA expression. Ten μg of total cellular RNAs isolated from B16 (lanes 1 and 4), and B16 transfected with either pIRES-EGFP (lanes 2 and 5) or pIRES-Stat3β (lanes 3 and 6) were hybridized with each multiple probe before digestion with RNase. Separation of protected fragments was achieved by gel electrophoresis. Fragment assignment was determined by migration relative to internal standards. Induction of TRAIL RNA was confirmed by two additional RPA analyses.
RNA isolation and RNase protection assay. Total RNA was isolated from 5.0×10^6 cells by TRIzol reagent (Gibco BRL, Grand Island, N.Y.). RNase protection assays (RPA) were carried out using the PharMingen Riboquant mAPO-3 (TRAIL, FasL, CD95, and other death receptor associated genes) and mAPO-2 (Bcl-2 family members) multi-probe templates according to the manufacturer's protocol (PharMingen, San Diego, Calif.). Briefly, the multi-probe template was synthesized by in vitro transcription with incorporation of [^32P]-α UTP and purified on a G50 Sephadex column (5-Prime to 3-Prime, Boulder, Colo.). Specific activity was quantitated in a Beckman LS 6500 scintillation counter (Beckman, Schaumburg, Ill.). […] Protected RNA fragments were separated on a 5% polyacrylamide denaturing gel and quantified with Image Quant software (Molecular Dynamics, Sunnyvale, Calif.). […]

VEGF = VEGF expression and Stat3 activity in v-Src-transformed NIH3T3 fibroblasts; type: cell-based
Description: FIG. 10A-B. Transfection of NIH3T3-Src cells with either: A. Stat3β expression vector; or B. Stat3 anti-sense oligos, results in reduced levels of VEGF protein as shown by Western blot. Src tyrosine kinase-mediated VEGF upregulation requires Stat3. Src tyrosine activity is known to upregulate VEGF expression. In Src-transformed NIH3T3 cells, VEGF expression is high.
Src tyrosine kinase activity upregulates VEGF expression. […] NIH3T3 fibroblasts transformed by v-Src were transiently transfected with a dominant-negative variant of Stat3, Stat3β. The transfection efficiency was approximately 40% based on the number of cells that were fluorescent due to the presence of GFP. […] Forty-eight hours later, VEGF expression in v-Src-NIH3T3 fibroblasts with or without Stat3β expression was compared at both RNA and protein levels. […] Anti-sense oligonucleotides against Stat3 as well as control oligonucleotides were also transfected into v-Src-NIH3T3 cells.

T1 sequence (P42227 whole entry): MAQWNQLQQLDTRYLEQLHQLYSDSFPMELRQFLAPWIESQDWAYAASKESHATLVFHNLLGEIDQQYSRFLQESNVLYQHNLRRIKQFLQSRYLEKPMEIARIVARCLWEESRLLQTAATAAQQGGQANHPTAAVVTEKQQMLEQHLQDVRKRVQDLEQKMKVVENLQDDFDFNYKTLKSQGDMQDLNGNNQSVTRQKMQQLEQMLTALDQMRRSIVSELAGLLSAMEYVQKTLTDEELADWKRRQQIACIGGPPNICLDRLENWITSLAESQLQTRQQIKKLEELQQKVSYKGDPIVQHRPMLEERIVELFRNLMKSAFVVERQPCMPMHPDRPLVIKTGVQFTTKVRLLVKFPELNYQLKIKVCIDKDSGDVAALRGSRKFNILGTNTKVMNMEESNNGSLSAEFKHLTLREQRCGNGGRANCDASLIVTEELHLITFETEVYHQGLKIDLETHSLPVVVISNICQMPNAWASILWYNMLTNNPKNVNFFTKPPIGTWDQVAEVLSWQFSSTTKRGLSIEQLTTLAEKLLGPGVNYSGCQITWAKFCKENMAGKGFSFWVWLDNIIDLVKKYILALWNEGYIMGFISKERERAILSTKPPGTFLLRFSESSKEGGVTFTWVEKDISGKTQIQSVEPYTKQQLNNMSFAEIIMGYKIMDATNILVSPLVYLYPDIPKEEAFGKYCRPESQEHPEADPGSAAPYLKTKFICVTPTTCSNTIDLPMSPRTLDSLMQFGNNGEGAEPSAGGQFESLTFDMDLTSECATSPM

B1: Stat3β: dominant-negative Stat3 variant, truncated form lacking the transactivation domain; delivered by the pIRES-Stat3β expression vector (protein)
chain: AQWNQLQQLDTRYLEQLHQLYSDSFPMELRQFLAPWIESQDWAYAASKESHATLVFHNLLGEIDQQYSRFLQESNVLYQHNLRRIKQFLQSRYLEKPMEIARIVARCLWEESRLLQTAATAAQQGGQANHPTAAVVTEKQQMLEQHLQDVRKRVQDLEQKMKVVENLQDDFDFNYKTLKSQGDMQDLNGNNQSVTRQKMQQLEQMLTALDQMRRSIVSELAGLLSAMEYVQKTLTDEELADWKRRQQIACIGGPPNICLDRLENWITSLAESQLQTRQQIKKLEELQQKVSYKGDPIVQHRPMLEERIVELFRNLMKSAFVVERQPCMPMHPDRPLVIKTGVQFTTKVRLLVKFPELNYQLKIKVCIDKDSGDVAALRGSRKFNILGTNTKVMNMEESNNGSLSAEFKHLTLREQRCGNGGRANCDASLIVTEELHLITFETEVYHQGLKIDLETHSLPVVVISNICQMPNAWASILWYNMLTNNPKNVNFFTKPPIGTWDQVAEVLSWQFSSTTKRGLSIEQLTTLAEKLLGPGVNYSGCQITWAKFCKENMAGKGFSFWVWLDNIIDLVKKYILALWNEGYIMGFISKERERAILSTKPPGTFLLRFSESSKEGGVTFTWVEKDISGKTQIQSVEPYTKQQLNNMSFAEIIMGYKIMDATNILVSPLVYLYPDIPKEEAFGKYCRPESQEHPEADPGAAPYLKTKFICVTFIDAVWK
B16 cells
  level of apoptosis: 75%
B16 tumors; B16 tumors
  apoptosis of tumor cells in vivo: massive apoptosis of B16 tumor cells
  tumor growth: complete regression of tumors
B16 tumors; B16 tumors, listed as Stat30
  tumor growth: inhibition of tumor growth and tumor regression
B16 tumors; H&E staining, vs control vector-treated tumors
  infiltration of inflammatory cells (neutrophils, macrophages, T cells): dramatic increase in number of inflammatory cells
B16 tumors; anti-iNOS antibody staining
  iNOS expression in tumor-infiltrating macrophages: induction of iNOS gene expression in the tumor-infiltrating macrophages
Stat3
  Stat3 DNA-binding complexes (supershift analysis): mostly Stat3β-Stat3β homodimer formation
TRAIL
  TRAIL RNA expression: induction of TRAIL RNA expression
VEGF; v-Src NIH3T3
  Stat3 DNA binding activity (EMSA): loss of Stat3 DNA binding activity
VEGF; v-Src NIH3T3, forty-eight hours
  VEGF expression: inhibits VEGF
